{
  "source": "paper PMC11079029",
  "about": "“Intramolecular autoinhibition regulates the selectivity of PRPF40A tandem WW domains for proline-rich motifs” (Nature Communications, 2024)",
  "binders": {"B1": {"name": "PRPF40A WW12 (tandem WW domains, residues 141-236) (domain or fragment, human, UniProt O75400 141-236, looked up)", "chain": "GAKSMWTEHKSPDGRTYYYNTETKQSTWEKPDDLKTPAEQLLSKCPWKEYKSDSGKPYYYNSQTKESRWAKPKELEDLEGYQNTIVAGSLITKSNL", "notes": "A few vector residues probably remain at the N-terminus after TEV cleavage (pETM11, NcoI site); 15N-labelled in the NMR experiments; also called PRPF40A WW tandem; WW12 wt; source: E. coli BL21(DE3), purified (Ni-NTA, TEV digestion, reverse Ni-NTA, SEC); not shown: His6, N-terminal, cleaved"}},
  "experiment_in_all_cases": "ITC; GB1-peptide or GB1-SF1 construct in the cell, PRPF40A WW12 in the syringe (as shown in Supplementary Figures 7 and 16A); 25 °C, 20 mM sodium phosphate pH 6.5, 100 mM NaCl; one-site binding model; at least duplicates; affinities apparent",
  "settings_in_all_cases": "both partners purified",
  "key": {"[1]": {"target": "T1, GB1-polyproline peptide P16", "T1 chain": "PPPPPPPPPPPPPPPP"}, "[2]": {"target": "T2, GB1-polyproline peptide P25", "T2 chain": "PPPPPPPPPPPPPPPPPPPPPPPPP"}, "[3]": {"target": "T3, GB1-SF1 Pro B (residues 468-539) (UniProt Q15637 468-539)", "T3 construct": "splicing factor 1 (SF1), residues 468-539 of the proline-rich C-terminal region; His6-GB1-TEV site cassette of the pET24 vector, not cleaved; source: E. coli BL21(DE3), purified (Ni-NTA, SEC); not shown: GB1, N-terminal, kept", "T3 sequence (looked up)": "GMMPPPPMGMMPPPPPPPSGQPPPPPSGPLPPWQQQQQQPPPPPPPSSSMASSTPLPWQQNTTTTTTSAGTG"}, "[4]": {"target": "T4, GB1-SF1 Pro A (residues 410-468) (UniProt Q15637 410-468)", "T4 construct": "splicing factor 1 (SF1), residues 410-468 of the proline-rich C-terminal region; His6-GB1-TEV site cassette of the pET24 vector, not cleaved; source: E. coli BL21(DE3), purified (Ni-NTA, SEC); not shown: GB1, N-terminal, kept", "T4 sequence (looked up)": "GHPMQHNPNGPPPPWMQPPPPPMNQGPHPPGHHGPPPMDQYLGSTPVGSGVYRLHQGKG"}, "[5]": {"target": "T5, GB1-SF1 16-mer peptide 565-580", "T5 chain": "TMVPLPPGVQPPLPPG"}, "[6]": {"target": "T6, GB1-polyproline peptide P29", "T6 chain": "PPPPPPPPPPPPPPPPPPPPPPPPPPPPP"}, "[7]": {"target": "T7, GB1-SF1 Pro D (residues 594-639) (UniProt Q15637 594-639)", "T7 construct": "splicing factor 1 (SF1), residues 594-639 of the proline-rich C-terminal region; His6-GB1-TEV site cassette of the pET24 vector, not cleaved; source: E. coli BL21(DE3), purified (Ni-NTA, SEC); not shown: GB1, N-terminal, kept", "T7 chain (looked up)": "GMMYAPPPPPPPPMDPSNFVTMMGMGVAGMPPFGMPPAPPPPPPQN"}, "[8]": {"target": "T8, GB1-polyproline peptide P22", "T8 chain": "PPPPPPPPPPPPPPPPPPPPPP"}, "[9]": {"target": "T9, GB1-polyproline peptide P13", "T9 chain": "PPPPPPPPPPPPP"}, "[10]": {"target": "T10, GB1-SF1 Pro C (residues 539-594) (UniProt Q15637 539-594)", "T10 construct": "splicing factor 1 (SF1), residues 539-594 of the proline-rich C-terminal region (holds the WWbs motif 575-590); His6-GB1-TEV site cassette of the pET24 vector, not cleaved; source: E. coli BL21(DE3), purified (Ni-NTA, SEC); not shown: GB1, N-terminal, kept", "T10 sequence (looked up)": "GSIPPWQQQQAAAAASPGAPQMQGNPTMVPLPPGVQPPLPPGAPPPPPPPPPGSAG"}},
  "data": [
    {"binder": "B1", "values": [
      {"measurement": "stoichiometry N", "setting": "[1]", "value": "0.88 ± 0.08", "unit": "sites"},
      {"measurement": "stoichiometry N", "setting": "[2]", "value": "2.3 ± 0.09", "unit": "sites"},
      {"measurement": "stoichiometry N", "setting": "[3]", "value": "1.15 ± 0.15", "unit": "sites"},
      {"measurement": "stoichiometry N", "setting": "[4]", "value": "0.99 ± 0.17", "unit": "sites"},
      {"measurement": "stoichiometry N", "setting": "[5]", "value": "1.06 ± 0.11", "unit": "sites"},
      {"measurement": "stoichiometry N", "setting": "[6]", "value": "2.47 ± 0.09", "unit": "sites"},
      {"measurement": "stoichiometry N", "setting": "[7]", "value": "0.87 ± 0.02", "unit": "sites"},
      {"measurement": "stoichiometry N", "setting": "[8]", "value": "1.39 ± 0.03", "unit": "sites"},
      {"measurement": "stoichiometry N", "setting": "[9]", "value": "0.78 ± 0.07", "unit": "sites"},
      {"measurement": "stoichiometry N", "setting": "[10]", "value": "0.88 ± 0.01", "unit": "sites"}
    ]}
  ]
}
